Laboratory results taken from paper doi:10.1101/2024.02.08.579498 (bioRxiv, 2024).

T1: TrwE/VirB10 (plasmid R388, UniProt O50337 1-395)
T1 sequence: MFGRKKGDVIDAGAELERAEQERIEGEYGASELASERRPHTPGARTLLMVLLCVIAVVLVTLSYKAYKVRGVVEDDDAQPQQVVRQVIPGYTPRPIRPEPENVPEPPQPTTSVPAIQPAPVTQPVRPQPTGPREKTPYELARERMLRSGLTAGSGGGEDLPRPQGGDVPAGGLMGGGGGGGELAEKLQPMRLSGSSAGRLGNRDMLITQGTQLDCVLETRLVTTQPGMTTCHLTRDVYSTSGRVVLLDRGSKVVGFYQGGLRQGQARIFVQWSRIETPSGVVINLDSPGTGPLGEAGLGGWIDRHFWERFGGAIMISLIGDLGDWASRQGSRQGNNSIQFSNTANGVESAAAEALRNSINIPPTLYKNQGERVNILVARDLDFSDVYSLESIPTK

B1: TrwI/VirB6 (natural protein, plasmid R388)
chain: MAFELFTPLFNKIDQTTATYVTDISSRAIAAITPVVSVGLTLGFITYGWLIIRGAVEMPVAEFLNRCLRIGIIVSIALAGGLYQGEIANAITTVPDELASALLGNPTEGASAAALVDQSAQQGFDRASEAFEEAGFFSSDGLLYGLFGIIIPAGYGPAGAIGGAFLLLAKIALALLAGLGPLFILALIWQPTHRFFDQWAQQVLNYGLLIVLFAAVFGLLMQIFGSYMADLRFDGAQNVAYAIGGSVILSIVSIVLLMQLPSIASGLAGGIGLGYMWELRSMRSGAGAAMRGGRAMARGARAAPGAARGAAVGAANMAKTVATGGAGVARAAAGYFRGRKAG
B2: TrwJ/VirB5 (natural protein, plasmid R388, UniProt O50331 23-226, looked up)
chain: QGIPVFDGTRALDFVQQFARMKEQLDTAKDQLAEAQRMYEAVTGGRGLGDLMRNAQLREYLPDDLRTVYDSANGGGYSGISGSINDILRDERLNGSVADMRRSIEERSRTARTTDKAVGCGPTKGHSNASRRLKDEISRTQDQKAIEELQARIAGEQAAIQNETTKLQMIAQLRQAEQALISEQRRERNMPILSSGNQGMPTIQ
B3: TrwG/VirB8 (natural protein, plasmid R388)
chain: MSKKQPKPVKAEQLKSYYEESRGLERDLIGEFVKSRKTAWRVATASGLFGLLGMVCGIVGFSQPAPAPLVLRVDNATGAVDVVTTLREHESSYGEVVDTYWLNQYVLNREAYDYNTIQMNYDTTALLSAPAVQQDYYKLFDGSNARDRVLGNKARITVRVRSIQPNGRGQATVRFTTQQHNSNGTVERPQHQIATIGYTYIGAPMRSSDRLLNPLGFQVTSYRADPEILNN
B4: TrwF/VirB9 (natural protein, plasmid R388)
chain: LDVPSSSRYDHRIRYVTYNPADVVQVDTVLGVATHIMLEEGEQYLTHAFGIPKPMPLPGRAGIFLSSRTAELANTNLIVVTDRRSYKFRLQMRNDRNGAMYELAFRYPDTQARQTREANARAAVEAAFEQRVGAYYNLKYMMSGDKDIAPVNAWDDGRFTYFKFSANADLPSIYFVDAEGNESLVPRTTVGSSNNIIAVHKVNPKWMIRLGNRALAIFNEAYDPNGVPNDTGTASPAVRRVNKGGN

Key:
Test in all cases: cryo-EM structure
TrwE/VirB10 = molecular target: T1, TrwE/VirB10
TrwI/VirB6 = molecular target: B1
cryo-EM structure = molecular target: the molecule itself

binding result (TrwE/VirB10) | binding result (TrwI/VirB6) | Binder | stoichiometry N (cryo-EM structure)
binds | – | B1 | –
– | binds | B2 | –
binds | – | B3 | 24
binds | – | B4 | –
